Reference: paper doi:10.1101/2023.03.09.531943 (bioRxiv, 2023)
Positions count from the first letter of the chain named.

T1: biotinylated CML13 (Arabidopsis thaliana, UniProt Q94AZ4 1-148, biotin, covalently conjugated (biotin-NHS ester), sites not stated)
T1 sequence: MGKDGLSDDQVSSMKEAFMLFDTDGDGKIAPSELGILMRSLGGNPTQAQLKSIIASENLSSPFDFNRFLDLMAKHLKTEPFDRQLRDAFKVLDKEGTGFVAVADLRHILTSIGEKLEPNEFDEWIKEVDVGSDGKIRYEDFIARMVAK

T2: biotinylated CML14 (Arabidopsis thaliana, UniProt Q8VZ50 1-148, biotin, covalently conjugated (biotin-NHS ester), sites not stated)
T2 sequence: T1 sequence with G2S, D8N, Q47E, A48S, A55T, S56T, E117Q, N119S

B1: recombinant CML13 (natural protein)
chain: T1 sequence
B2: recombinant CML14 (natural protein)
chain: T1 sequence with G2S, D8N, Q47E, A48S, A55T, S56T, E117Q, N119S
B3: IQD14-IQ1+2 synthetic peptide, residues 322-367 (peptide)
peptide: not shown
modifications: N-terminal acetylation; C-terminal amidation
B4: recombinant IQD14 (residues 307-418), all three putative IQ domains (domain or fragment)
chain: RREIVYRPEPTLPVQHASATKIQGAFRGYMARKSFRALKGLVRLQGVVRGYSVKRQTINAMKYMQQVVRVQSQIQSRRIKMLENQAQVEKDEAKWAASEAGNDNWDDSVLTK

Columns and labels:
[1] = target: B3; experiment: AUC
[2] = target: recombinant CaM (petunia CaM81) (petunia, UniProt P62199 1-149); experiment: ITC
[3] = target: B2; experiment: ITC
[4] = target: B1; experiment: ITC
[5] = target: T1, biotinylated CML13; experiment: far-Western, overlay or dot blot
[6] = target: biotinylated CaM (petunia CaM81) (petunia, UniProt P62199 1-149, biotin, covalently conjugated (biotin-NHS ester), sites not stated); experiment: far-Western, overlay or dot blot
[7] = target: T2, biotinylated CML14; experiment: far-Western, overlay or dot blot

B1
stoichiometry N [1]: 1

B2
stoichiometry N [1]: 1

Ac-QHASATKIQGAFRGYMARKSFRALK-NH2 [IQD14-IQ1 synthetic peptide, residues 322-346]
Kd [2]: 7 nM | Kd [3]: 116 nM | Kd [4]: 222 nM

B3
binding result [2]: binds | binding result [3]: binds | binding result [4]: binds

Ac-ALKGLVRLQGVVRGYSVKRQTINA-NH2 [IQD14-IQ2 synthetic peptide, residues 344-367]
binding result [2]: binds

B4
binding result [5]: binds | binding result [6]: binds | binding result [7]: binds
